Series [1] has as its system Gal4 reporter plasmid (pGal4-Luciferase). Description: Gal4 reporter (luciferase) promoter repression in NIH3T3 cells. Format: cell-based. An excerpt:
Assuming that HDART takes part in more direct inhibition, it is expected that it has an autonomous repression function. To confirm the above expectation, in order that HDART can bind to DNA the full-length HDART cDNA was fused to Gal4 DNA binding region (GAL4DBD: a region having only a binding region with GAL4DNA and lacking a transcription control region) to analyze whether the transcription from the GAL4A promoter could be regulated within NIH3T3 cells.
More particularly, a Gal4 DBD-HDART plasmid capable of expressing a full-length HDART and Gal4 DBD fused protein was transfected in different amounts (0, 0.1, 0.3, and 0.5 μg) into NIH3T3 cells previously prepared to contain Gal4 reporter plasmid (pGal4-Luciferase). It should be noted that in order to make a uniform total amount of DNA used for the transfection, the amount of an expression vector was equalized to 0.5 μg by adding the appropriate amount of a vacant vector of Gal4 DBD in each transfection. 24 hours after the transfection, the expression activity (Luciferase activity) of reporter genes from the promoter was analyzed. The luciferase activity for each sample is indicated as a corrected value based on the luciferase activity obtained by introduction of a vacant vector alone as a reference (100%) (FIG. 8). It will be noted that the results of the analysis were indicated as an average of the results of three experiments, and a standard deviation is indicated as an error bar (FIG. 8A). Similar analyses were made using a different type of cell, U-205 cell, with Gal4 DBD-HDART (in an amount of 0 or 0.5 μg) (FIG. 8B).

A further series concerns the target HDAC3 (Homo sapiens, UniProt O15379). The experiment in a line: GST pulldown analysis. It is filed as binding. Conditions: GST-HDART fused protein versus GST protein. An excerpt:
Further, the direct interaction between HDART and HDAC3 was investigated by GST pulldown analysis. The GST pulldown analysis was essentially carried out according to a known procedure (Tzamarias, D., and Struhl, K. (1995) Genes Dev 9(7), 821-31.). Using TNT (Registered Trademark) in vitro transcription/translation system (Promega), the in vitro translation of HDAC3 was made in the presence of ^35S-methionine. GST protein or GST-HDART fused protein was, respectively, expressed within Escherichia coli, followed by purification in a GST binding buffer solution (50 mM tris-HCl, 200 mM LiCl, 0.5% NP40, 5 mM EDTA, 1 mM PMSF) by use of glutathione sepharose. A binding reaction solution containing GST-HDART fused protein or control GST protein (about 1 μg) and ^35S-radio-labeled in vitro translation product (10 μl) in 1 ml of the GST binding buffer solution was prepared. This reaction solution was incubated at 4° C. for one hour while shaking, after which the resulting the sepharose-GST protein complex was washed five times with the GST binding buffer solution. […] It was confirmed by Coomassie brilliant blue staining that the GST fused protein was equally electrophoresed, and ^35S-radio-labeled HDAC was detected according to autoradiography.

Series [2] has as its system glucocorticoid receptor (GR). Description: GR reporter CAT analysis in GR positive Hela cells. It is filed as cell-based. Conditions: co-expression of HDART; Hela cells; 10^−8 M dexamethasone. The protocol:
Furthermore, the action of HDART on the transcription regulation by glucocorticoid receptor (GR) was analyzed by use of GR reporter plasmid in GR positive Hela cells. The transcription activity of a glucocorticoid response promoter was carried out in the same manner as in the experiment for the retinoic acid receptor except for the use of Hela cells and 10^−8 M of dexamethasone. The results of the measurement are shown in the same manner as shown above.
Next, the influence of the overexpression of N4TPR on the transcription from RAR or a glucocorticoid responsive promoter was checked. It will be noted that this test was made in the same manner as in the reporter analysis set out in Example 4, but using GFP-N4TPR expression vector (0, 0.3 and 0.5 μg).

The subject of a further series is MM-1-19-P cells. Description: ATRA-induced differentiation of MM-1-19-P rhabdomyosarcoma cells. It is filed as cell-based, human. An excerpt: It is known that ATRA (all-trans retinoic acid) is an important inducer for tumor cell differentiation (20-22). The human rhabdomyosarcoma cell line MM-1-19-P is constituted mainly of small polygonal cells, which when provided with retinoic acid, ultimately differentiate into myotubular cytomegalic cells. In order to clarify the physiological role of HDART in the reaction ascribed to nuclear hormone receptors, the influence of the expression with HDART on the differentiation of MM-1-19-P caused by ATRA was analyzed.
MM-1-19-P cells were plated in a […] Petri dish, followed by co-transfection of the cells with 0.4 μg of pGFP vector and 2 μg of pcDNA3 (vacant vector) or pcDMA3-HDART (HDART expression vector). 24 hours after the transfection, the medium was changed with an ATRA-containing (2 μM) or ATRA-free fresh one. […] All experiments were repeated four times, and the number of cells assessed as positive for GFP was counted. It will be noted that in FIG. 12, the standard microphotographs of green fluorescence of GFP are shown in panels of FIGS. 12A, 12B, 12C and 12D, and the phase differential microphotographs are shown in panels of FIGS. 12E and 12F, respectively. In the figure, 12A indicates ATRA non-treated, vacant vector-introduced cells, 12B indicates ATRA treated, vacant vector-introduced cells, 12C indicates ATRA-non-treated, HDART expression vector-introduced cells, 12D indicates ATRA-treated, HDART expression vector-introduced cells, 12E indicates cells under the same conditions as in 12C above, and 12F indicates cells under the same conditions as in 12D above. In addition, the black arrow in the panel of FIG. 12F indicates undifferentiated GFP positive cells, and white arrow indicates differentiated cells.

Experimental findings from US8889408B2, “Factor taking part in transcription control” (Sony Corporation, priority 2002, dated 2014) are described below.

Chain of HDAC3 (O15379 whole entry, species assumed, the tested form may be a part): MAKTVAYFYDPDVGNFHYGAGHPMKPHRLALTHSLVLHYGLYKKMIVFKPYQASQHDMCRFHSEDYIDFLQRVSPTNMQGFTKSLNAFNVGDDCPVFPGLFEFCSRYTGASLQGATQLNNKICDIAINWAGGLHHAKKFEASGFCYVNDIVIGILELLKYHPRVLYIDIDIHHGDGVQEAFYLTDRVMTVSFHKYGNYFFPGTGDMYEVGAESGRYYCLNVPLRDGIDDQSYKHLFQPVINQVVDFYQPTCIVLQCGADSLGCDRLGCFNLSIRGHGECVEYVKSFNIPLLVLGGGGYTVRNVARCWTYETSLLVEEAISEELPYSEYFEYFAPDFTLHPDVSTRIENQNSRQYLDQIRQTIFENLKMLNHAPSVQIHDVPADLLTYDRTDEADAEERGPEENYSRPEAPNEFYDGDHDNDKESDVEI

B1: HDART: HDAC associated repressor TPR protein, 855 amino acids, SEQ ID NO: 2; transcription repressing factor, used as fusions or expressed from vector (protein, listed as Homo sapiens)
chain: MVVMARLSRPERPDLVFEEEDLPYEEEIMRNQFSVKCWLRYIEFKQGAPKPRLNQLYERALKLLPCSYKLWYRYLKARRAQVKHRCVTDPAYEDVNNCHERAFVFMHKMPRLWLDYCQFLMDQGRVTHTRRTFDRALRALPITQHSRIWPLYLRFLRSHPLPETAVRGYRRFLKLSPESAEEYIEYLKSSDRLDEAAQRLATVVNDERFVSKAGKSNYQLWHELCDLISQNPDKVQSLNVDAIIRGGLTRFTDQLGKLWCSLADYYIRSGHFEKARDVYEEAIRTVMTVRDFTQVFDSYAQFEESMIAAKMETASELGREEEDDVDLELRLARFEQLISRRPLLLNSVLLRQNPHHVHEWHKRVALHQGRPREIINTYTEAVQTVDPFKATGKPHTLWVAFAKFYEDNGQLDDARVILEKATKVNFKQVDDLASVWCQCGELELRHENYDEALRLLRKATALPARRAEYFDGSEPVQNRVYKSLKVWSMLADLEESLGTFQSTKAVYDRILDLRIATPQIVINYAMFLEEHKYFEESFKAYERGISLFKWPNVSDIWSTYLTKFIARYGGRKLERARDLFEQALDGCPPKYAKTLYLLYAQLEEEWGLARHAMAVYERATRAVEPAQQYDMFNIYIKRAAEIYGVTHTRGIYQKAIEVLSDEHAREMCLRFADMECKLGEIDRARAIYSFCSQICDPRTTGAFWQTWKDFEVRHGNEDTIKEMLRIRRSVQATYNTQVNFMASQMLKVSGSATGTVSDLAPGQSGMDDMKLLEQRAEQLAAEAERDQPLRAQSKILFVRSDASREELAELAQQVNPEEIQLGEDEDEDEMDLEPNEVRLEQQSVPAAVFGSLKED
On to B1, for which the promoter activity entry in series [1] (Gal4 DBD-HDART plasmid 0, 0.1, 0.3, 0.5 μg, NIH-3T3 cells) was “significantly inhibits”. Further, the “lowering of the expression of luciferase” value in series [1] (Gal4 DBD-HDART plasmid, highest concentration 0.5 μg, NIH-3T3 cells, 24 hours after transfection, vacant vector = 100%) stood at 80%. The “expression inhibition of luciferase” value in series [1] (HDART not having a GAL4 DNA binding region) is given as “not observed”. In addition, the “pulldown of in vitro translated HDAC3” value in the series with HDAC3 is given as “pulled down”. For the same molecule, the “activation of the reporter gene responding to glucocorticoid” value in series [2] is “inhibited”. The “change in phenotype on ATRA treatment” value with MM-1-19-P cells (HDART expression vector-introduced GFP positive cells, ATRA 2 μM, 48 hours) is given as “little change in the phenotype”. Further, the “numbers of GFP positive cells, ATRA treated versus non-treated group” value in the series on MM-1-19-P cells (HDART expression vector-introduced cells) is recorded as “same”.
